US20260274955A1 (JANUX THERAPEUTICS, published 2026)

What was measured:
[1] = target: T1, Anti-CD28 Fab (SEQ ID NOs: 202, 203); test: phage ELISA on captured biotinylated Fab;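 also: wells preblocked with or without CD28 antigen, then clonal phage supernatant added briefly, washed, and bound phage read out by ELISA using HRP-linked anti-M13 antibody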
T1 construct: biotinylated and captured on neutravidin coated plates in the phage ELISA
Experimental: (§1) Clonal phage were harvested as crude supernatants and screened via standard ELISAs. […] Prior to the addition of clonal phage, wells were incubated with blocking buffer and CD28 antigen or blocking buffer alone. Without washing or aspirating, clonal phage supernatants were then added to the wells and incubated for a short time. Wells were then washed followed by detection of bound phage using a horse radish conjugated anti-M13 antibody.

[2] = target: T1, Anti-CD28 Fab (SEQ ID NOs: 202, 203); test: phage ELISA on captured Fab, wells pre-incubated with CD28 antigen (competitor: CD28);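 also: bound clonal phage detected with an HRP-linked anti-M13 antibody, compared against wells that received blocking buffer alone without CD28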
Experimental: as §1

T1 sequence (VH, as listed by the source, chain 1 of 2): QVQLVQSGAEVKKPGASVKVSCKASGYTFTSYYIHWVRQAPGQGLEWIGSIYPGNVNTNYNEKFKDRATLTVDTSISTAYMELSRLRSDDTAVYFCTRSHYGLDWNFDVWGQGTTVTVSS
T1 sequence (VL, as listed by the source, chain 2 of 2): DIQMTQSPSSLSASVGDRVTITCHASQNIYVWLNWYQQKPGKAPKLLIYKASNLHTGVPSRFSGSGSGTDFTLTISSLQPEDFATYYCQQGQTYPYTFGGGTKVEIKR

Row | Binder | Anti-CD28 Fab signal [1] | Anti-CD28 Fab signal in the presence of CD28 [2]
1 | YCEGHLPIYMDKCL [Phage-228] | 2.06 | 0.08
2 | YCEGHSPEYMSHCF [Phage-216] | 2.08 | 0.09
3 | YCAGHLPEHIGKCL [Phage-207] | 2.09 | 0.07
4 | YCDGHAPEYVMKCL [Phage-232] | 2.05 | 0.1
5 | YCAGHLEIYMQKCL [Phage-211] | 2.09 | 0.08
6 | YCAGHIEEYMWKCL [Phage-230] | 2.05 | 0.06
7 | YCEGHADIYMQKCL [Phage-225] | 2.06 | 0.07
8 | YCEGHAIQYMSKCL [Phage-239] | 2.04 | 0.06
9 | YCDGHLPVYMAKCL [Phage-195] | 2.11 | 0.09
10 | YCDGHLPAYMAKCL [Phage-222] | 2.06 | 0.12
11 | YCEGHSPQYMQKCL [Phage-202] | 2.1 | 0.06
12 | YCEGHSPQYMSKCL [Phage-241] | 2.04 | 0.07
13 | YCSGHAPIYMAKCL [Phage-200] | 2.1 | 0.07
14 | YCSGHAPEYMAKCL [Phage-287] | 1.94 | 0.06
15 | YCAGHSPEYMGKCM [Phage-209] | 2.09 | 0.06
16 | YCDGHLIEYMEKCL [Phage-238] | 2.04 | 0.06
17 | YCDGHLNEYMEKCL [Phage-298] | 1.91 | 0.06
18 | YCQGHLPQYIAKCL [Phage-205] | 2.09 | 0.08
19 | YCDGHAIEYMQKCL [Phage-229] | 2.05 | 0.07
20 | YCDGHVGEYMQKCL [Phage-233] | 2.05 | 0.08

Row | Binder | Anti-CD28 Fab signal [1] | Anti-CD28 Fab signal in the presence of CD28 [2]
21 | YCEGHLPQYIPKCL [Phage-193] | 2.12 | 0.07
22 | YCEGHAPEYMMKCI [Phage-224] | 2.06 | 0.06
23 | YCDGHVPQYMAKCL [Phage-203] | 2.1 | 0.07
24 | YCEGHSMQHMAKCL [Phage-217] | 2.07 | 0.08
25 | YCAGHLPQYMEKCM [Phage-206] | 2.09 | 0.08
26 | YCDGHELRYMAKCL [Phage-221] | 2.07 | 0.07
27 | YCQGHMPEYMDKCL [Phage-231] | 2.05 | 0.07
28 | YCDGHAEQYMEKCL [Phage-215] | 2.08 | 0.07
29 | YCEGHSDEYMLKCL [Phage-223] | 2.06 | 0.07
30 | YCDGHLPEYQMKCL [Phage-236] | 2.05 | 0.08
31 | YCEGHAPEYMYKCL [Phage-235] | 2.05 | 0.07
32 | YCEGHAPEHMAKCL [Phage-214] | 2.08 | 0.1
33 | YCDGHSAQYMHKCL [Phage-234] | 2.05 | 0.06
34 | YCDGHAQEFMSKCL [Phage-218] | 2.07 | 0.12
35 | YCEGHAPQYIQKCL [Phage-220] | 2.07 | 0.07
36 | YCLGHAPQYIQKCL [Phage-243] | 2.04 | 0.14
37 | YCEGHTAEYLQKCL [Phage-208] | 2.09 | 0.1
38 | YCAGHTQEYMSKCL [Phage-201] | 2.1 | 0.05
39 | YCDGHLEEYMAKCL [Phage-198] | 2.11 | 0.09
40 | YCMGHSEEYMQKCL [Phage-196] | 2.11 | 0.07
